In patent publication US20250340659A1 (PETMEDIX, published 2025):
Substitutions are numbered along the chain they refer to.

T1: canine OX40L, full length membrane form, expressed on HEK293 cells (canine)
T1 chain: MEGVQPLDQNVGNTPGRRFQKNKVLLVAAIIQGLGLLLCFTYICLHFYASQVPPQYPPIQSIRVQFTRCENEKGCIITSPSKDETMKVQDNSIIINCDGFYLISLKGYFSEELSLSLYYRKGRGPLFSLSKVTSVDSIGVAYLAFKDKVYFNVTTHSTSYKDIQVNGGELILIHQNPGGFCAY

T2: recombinant canine OX40L ECD-TNCc-HIS protein (canine)
T2 construct: also called Trimeric OX40L probe (HIS tag); trimeric canine OX40L
T2 chain: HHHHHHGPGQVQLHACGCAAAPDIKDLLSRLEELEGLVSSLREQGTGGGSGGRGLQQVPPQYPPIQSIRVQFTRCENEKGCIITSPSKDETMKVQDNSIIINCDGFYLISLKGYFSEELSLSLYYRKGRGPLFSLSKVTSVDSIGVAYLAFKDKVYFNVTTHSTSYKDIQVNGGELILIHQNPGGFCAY

B1: PMX065 (antibody, V domains shown)
VH: EVQLVESGGDLVKPGGSLRLSCVASGFTFNNYEMYWVRQAPGKGLEWVARIYESGSTTFSAEAVTGRFTISRDNAKNMVYLQMNSLRAEDTAVYYCASASSSSWRFDYWGQGTLVTVSS
VL: SYVLTQLPSVSVTLGQTARITCGGDSIGRKNVCWFQQRLGQAPELIIYDDRSRPSGIPERFSGANSGNTATLTISGALAEDEADYYCQVWDSSTGVFGGGTHLTVL
notes: also called PMX65
B2: PMX029 (antibody, V domains shown)
VH: EVQLVESGGDLVKPGGSLRLSCVASGFTFSSYHMNWVRQAPGKGLQWVAYINTGGSRTSYADAVKGRFTISRDNAKNTLYLQMNSLRAEDTAVYYCANNYWDNFDSWGQGTLVTVSS
VL: SYELTQPPSVNVTLRETAHITCGGDSIGSKYVQWIQQNPGQAPVVIIYKDTNRPTGIPERFSGANSGNTATLTISGALAEDEADYYCQVGDSGTKASVFGGGTHLTVL
notes: also called PMX29
B3: PMX154 (antibody, V domains shown)
VH: EVQLVESGGDLVKPEGSLRLSCVVSGFTFSGFDMSWVRQAPGKGLQWVAYISTDGRSTGYTDAVKGRFTISRDNVKNTLYLQMNSLRTEDTAVYYCAKETRHWGFDYWGQGTLVIVSS
VL: SYVLTQLSSVSVSLRQTAHITCGGDSIGRKNVYWHQQKLGRAPILIIYDDSSRPSGIPERFSGANSGNTATLTISGALAEDEAAYYCQVWDSSTSVFGGGTHLTVL
B4: PMX155 (antibody, V domains shown)
VH: ELHLVESGGDLVKPAGSLRLSCVASGFTFSSFRMSWVRQSPGKGLQFVAGINSDGYNTQYRDDVKGRFTISRDNTEKTLYLQMNNLRVEDTAMYYCVKDQGSWGGNFDFWGQGTLVTVSS
VL: SYGLTQPPSVNVTLRETAHITCGGDSIGSKYVQWIQQIPGQAPVVIIYKDRNRPTGIPERFSGANSGNTATLTISGALAEDEADYYCQVGDSGTSVFGGGTHLTVL
B5: PMX156 (antibody, V domains shown)
VH: B4 VH with H3Q, S31N, S40A, N57S, F109Y
VL: B4 VL
B6: PMX030 (antibody)
heavy: EVQLVESGGDLVKPGGSLRLSCVASGFTFSNYHMNWVRQAPGKGLQWVAYVVSGGSTTSYADAVKGRFTISRDNAKNTLYLQMNSLRAEDTAVYYCAKGTSSWGVPMDYWGHGTSLFVSSASTTAPSVFPLAPSCGSTSGSTVALACLVSGYFPEPVTVSWNSGSLTSGVHTFPSVLQSSGLYSLSSMVTVPSSRWPSETFTCNVAHPASKTKVDKPVPKRENGRVPRPPDCPKCPAPESLGGPSVFIFPPKPKDTLLIARTPEVTCVVVDLGREDPEVQISWFVDGKQMQTAKTQPREEQFNGTYRVVSVLPIGHQDWLKGKQFTCKVNHIGLPSPIERTISKARGQAHQPSVYVLPPSREELSKNTVSLTCLIKDFFPPDIDVEWQSNGQQEPESKYRTTPPQLDEDGSYFLYSKLSVDKSRWQRGDTFICAVMHEALHNHYTQKSLSHSPGK
VL: B1 VL with G15R, G28R, R29S, C33Y, F35Y, R38K, E44V, R51S, G95S
notes: also called PMX30
B7: PMX031 (antibody)
heavy: B6 heavy with S56T, S59T, S102T
VL: B1 VL with G15R, G28R, R29S, C33Y, F35Y, Q37K, R38K, E44V, R51S, G95S
notes: also called PMX31
B8: PMX293 (antibody, V domains shown)
VH: EVRLLESGGDLVKPAGSLRLSCAVSGFTFSTYDMSWVRQAPGKGLQWVAYITYDGRTTSYTDTVKGRFTVSRDNAKNMLYLKMNSLRSEDAAVYYCAKAHRGWFFDHWGQGTLVTVSS
VL: B1 VL with G15R, R29S, C33Y, F35Y, R38K, E44V, R51T, N68T
B9: PMX294 (antibody, V domains shown)
VH: EVQLVESGGDLVKPEGSLRLSCAVSGFTFSSNDMSWVRQAPGKGLQWVAYITYDGRSTSYTDIVKGRFTVSRDNAKNTLYLQMNSLRSEDAAVYYCAKAQRGWFFDYWGQGTLVTVSS
VL: B1 VL with G15R, R29S, C33Y, F35Y, R38K, E44V, R51D, F61I
B10: PMX035 (antibody, V domains shown)
VH: EVQLVESGGDLVKPGGSLRLSCVASGFTFSNFEMYWVRQAPGKGLEWVARIYKSGSTTYHSERVKGRFTISKDSATNMAFLQMNSLRAEDTAVYYCTSASSTGWRFDYWGQGTLVTVSS
VL: B1 VL with G15R, R38K, E44V, R51N, V96I
notes: also called PMX35
B11: PMX040 (antibody, V domains shown)
VH: B10 VH with K53E, S56T, S61A, R63G, S74N, A75V, T76K, F80Y, T102S, G103S
VL: B1 VL with G15R, R38K, E44I, R51S, V96I
notes: also called PMX40

Experiments:
[1] = target: T1, canine OX40L, full length membrane …; assay: cell-based or functional assay
[2] = target: T2, recombinant canine OX40L ECD-TNCc-HIS …; assay: SPR KD1, bivalent analyte model
Procedure, shortened: (§1)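 Purified antigen amine-coupled at low density to a CM5 chip; candidate antibodies injected as analyte over a concentration range. Kinetic curves fitted with a bivalent analyte model to give functional affinity and dissociation rates.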

[3] = target: T1, canine OX40L, full length membrane …; assay: flow cytometry
Procedure, shortened: (§2)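 CHO supernatants at 1, 5 or 10 μg/ml in PBS/3% FBS incubated 30′ on ice with cells surface-expressing canine OX40L. Bound antibody detected with fluorescent anti-canine Fc secondary (1:1000, 30 min, dark) and measured by flow cytometry, with parental WT HEK signal subtracted where stated.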

[4] = target: T1, canine OX40L, full length membrane …; assay: flow cytometry, OX40L HEK minus WT HEK
Procedure, shortened: as §2

[5] = target: T2, recombinant canine OX40L ECD-TNCc-HIS …; assay: SPR Koff (kd1)
Procedure, shortened: as §1

[6] = target: T2, recombinant canine OX40L ECD-TNCc-HIS …; assay: SPR Koff (kd2)
Procedure, shortened: as §1

Row | Binder | % Signal Inhibition Average [1] [%] | % Signal Inhibition Rep1 [1] [%] | % Signal Inhibition Rep2 [1] [%] | % Signal Inhibition Rep3 [1] [%] | Kd [2] [nM] | GEO mean OX40L expressing HEK [3] | GEO mean difference [4] | koff [5] [s⁻¹] | koff [6] [s⁻¹]
1 | B1 | 72.6 | 62.7 | 85.3 | 69.9 | 107 | 3.55e+06 | 3.52e+06 | 0.0125 | 0.412
2 | B2 | 69.4 | 75.8 | 76.2 | 56 | 51.6 | 1.09e+06 | 1.06e+06 | 0.0294 | 0.000779
3 | B3 | 63.7 | 62.6 | 77.2 | 51.5 | 15.6 | 789000 | 781000 | 0.00384 | 6.94
4 | B4 | 32.7 | 19.9 | 37.4 | 40.9 | 90.6 | 738000 | 730000 | 0.032 | 0.000294
5 | B5 | 35.1 | 21.6 | 34.5 | 49.1 | 1980 | 680000 | 672000 | 0.102 | 0.000238
6 | B6 | 65.6 | 70.6 | 83.9 | 42.3 | 114 | 1.42e+06 | 1.39e+06 | 0.0283 | 0.000924
7 | B7 | 78.4 | 83.5 | 89.1 | 62.7 | 154 | 1.55e+06 | 1.51e+06 | 0.0124 | 0.000606
8 | B8 | 73.7 | 81.6 | 77.5 | 62.1 | 1 | 602000 | 598000 | 0.000387 | 145
9 | B9 | 78.6 | 94 | 88.7 | 53 | 14.4 | 595000 | 591000 | 0.00155 | 2.69
10 | B10 | 73.5 | 85.3 | 67.4 | 67.8 | 269 | 1.41e+06 | 1.38e+06 | 0.0311 | 0.000498
11 | B11 | 77.1 | 75.4 | 84.2 | 71.8 | 1.26 | 1.18e+06 | 1.15e+06 | 0.000748 | 0.436
